From patent US20260219283A1 come the findings set out here.

Where “and” joins values, the source holds several entries; their conditions need not be identical. Equal values may be shown once.

The target of this experiment is semi-synthetic pS129-α-synuclein (Proteos Inc.) (Homo sapiens (Human)) (UniProt P37840). Description: sandwich ECLIA, freshly prepared pS129-α-syn standard at 100 ng/mL.

Consider “anti-pS129-α-syn monoclonal antibody EP1536Y”, for which the ECLIA signal at 100 ng/mL standard is 500000 and 1.1e+06.
